Patent CN117886936A

Target: hCD47-ECD-his (human) (UniProt Q08722)
Test: ELISA on coated human CD47-his after pre-incubating the antibody with human red blood cells (1E8/well)

UniProt Q08722, sequence (Q08722 other isoform, or with tags, fused parts or gaps): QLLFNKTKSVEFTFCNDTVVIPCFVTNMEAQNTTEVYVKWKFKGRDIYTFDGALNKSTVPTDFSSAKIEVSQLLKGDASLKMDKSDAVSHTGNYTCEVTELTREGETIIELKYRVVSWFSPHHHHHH

ALX148
EC50: 3.15 µg/mL
